B1: OR4K15 (parent)
chain: GUUAACGGUCAUAGGCCAUGGAAACUAGGAGCACCAUUUCGCUGCCAGUGAAGAAAUGAACAAAGAAAAUCUGGGCCAGGCAGGCAUCAAAAGAAAUAGUCUUGCGCUCAACCAGAAAGUCUGUAAUCAUUUUAAGGGUA

Variants of: B1
Experiment: self-cleavage, relative activity (ratio to wild type); higher = more cleavage; in vitro, sequencing; the parent is a self-cleaving ribozyme
GUUAACGGUCAUAGGCCAUGGAAACUAGGAGCACCAUUUCGCUGCCAGUGAAGAAAGGAACAAAGAAAAUCUGGGCCAGGCAGGCAUCAAAAGAAAUAGUCUUGCGCUCAACCAGAAAGUCUGUAAUCAUUUUAAGGGUU [U57G A140U] showed a self-cleavage of 1.23.
With GUUGACGGUCAUAGGCCAUGGAAACUAGGAGCACCAUUUCGCUGCCAGUGAAGAAAUGAACAAAGAAGAUCUGGGCCAGGCAGGCAUCAAAAGAAAUAGUCUUGCGCUCAACCAGAAAGUCUGUAAUCAUUUUAAGGGUA [A4G A68G] the self-cleavage was 0.87.
In the case of GUUAAUGGUCAUAGGCCAUGGAAACUAGGAGCACCAUUUCGCUGCCAGUGAAGGAAUGAACAAAGAAAAUCUGGGCCAGGCAGGCAUCAAAAGAAAUAGUCUUGCGCUCAACCAGAAAGUCUGUAAUCAUUUUAAGGGUA [C6U A54G], the self-cleavage is reported as 0.92.
In the case of GUUAACGGUCAUAGGCCAUGGAAACUAGGAGCACCAUUUCGCUGCCAGUGAAGAAAUGAACAAAGAAAAUCUGGGCCAGGCAGGCAUCAAAAGAAAUAGUCUUGCUCUCAACCAGAAAGUCUGUAAUCAUUUUAAGGGUA [G106U], the self-cleavage is reported as 0.01.
GUUAACGGUCAUAGGCCAUGGAAACUAGGAGCACCAUUACGCUGCCAGUGAAGAAAUGAACAAAGAAAAUCUGGGCCAGGCAGGCAUCAAAAGAAAUAGUCUUGCGCUCGACCAGAAAGUCUGUAAUCAUUUUAAGGGUA [U39A A110G] gave a self-cleavage of 0.04.
For GUUAACGGUCGUAGGCCAUGGAAGCUAGGAGCACCAUUUCGCUGCCAGUGAAGAAAUGAACAAAGAAAAUCUGGGCCAGGCAGGCAUCAAAAGAAAUAGUCUUGCGCUCAACCAGAAAGUCUGUAAUCAUUUUAAGGGUA [A11G A24G], the self-cleavage was 1.02.
For GUUAACGAUCAUAGGCCAUGGAAACUAGGAGCACCAUUUCGCUGCCAGUGAGGAAAUGAACAAAGAAAAUCUGGGCCAGGCAGGCAUCAAAAGAAAUAGUCUUGCGCUCAACCAGAAAGUCUGUAAUCAUUUUAAGGGUA [G8A A52G], the self-cleavage was 2.73.
For GUUAACGGUCAUAGGCCAUGGAAACUAGGAGCACCAUUCCGCUGCCAGUGAAGAAAUGAACAAAGAAAAUCUGGGCCAGGCAGGCAUCAAAAGAAAUAGUCUUGCGCUCAACCAGAAAGUCUGUAAUCAUUUUGAGGGUA [U39C A134G], the self-cleavage was 1.83.
For GUUAACGGUCAUAGGCCAUGGAAACUAGGAGCACCAUUUAGCUGCCAGUGAAGAAAUGAACAAAGAAAAUCUGGGCCAGGCAGGCAUCAAAAGAAACAGUCUUGCGCUCAACCAGAAAGUCUGUAAUCAUUUUAAGGGUA [C40A U97C], the self-cleavage was 1.43.
Variant GUUAAUGGUCAUAGGCCAUGGAAACUAGGAGCACCAUUUCGCUGCCAGUGAAGAAAUGAACAAAGAAAAUCUGGGCCAGGCAGGCAUCAAAAGAAAUAGUCUUGCGCUCAACCUGAAAGUCUGUAAUCAUUUUAAGGGUA [C6U A114U] has a self-cleavage of 0.07.
GUUAACGGUCAUAGGCCAUGGAAACUAGGAGCACCAUUUCGCUGCCGGUGAAGAAAUGAUCAAAGAAAAUCUGGGCCAGGCAGGCAUCAAAAGAAAUAGUCUUGCGCUCAACCAGAAAGUCUGUAAUCAUUUUAAGGGUA [A47G A60U] gave a self-cleavage of 1.4.
With GUUAACGGUCAUAGGCCAUGGAAACUAGGAGCACCACUUCGCUGCCAGUGAAGAAAUGAACAAAGAAAAUCUGGGCCAGGUAGGCAUCAAAAGAAAUAGUCUUGCGCUCAACCAGAAAGUCUGUAAUCAUUUUAAGGGUA [U37C C81U] the self-cleavage was 0.49.
GUUAACGGUCGUAGGCCAUGGAAACUAGGAGCACCAUUUCGCUGCCAGUGAAGAAAUGAACAAAGAAAAUCUGGGCCAGGCAGGCAUCAAAGGAAAUAGUCUUGCGCUCAACCAGAAAGUCUGUAAUCAUUUUAAGGGUA [A11G A92G] showed a self-cleavage of 1.1.
Work on GUUAACGGUCAUAGGCCAUGGAAACUAGGAGCACCAUUUCGCUGCCAGUGAAGAAAUGAACAAAGAAAAUCAGGGCCAGGCAGGCAUCAAAAGAAAUAGUCUUGCGCUCAGCCAGAAAGUCUGUAAUCAUUUUAAGGGUA [U72A A111G] yielded a self-cleavage of 0.02.
With GUUAACGGUCAUCGGCCAUGGAAACUAGGAGCACCAUUUCGCUGCCAGUGAAGAAAUGAACAAAGAAAAUCUGGGCCAGGCAGGCAUCAAAAGAAAUAGUCUUGCGCUCAACCAGAAAGUCUGUAAUCAUUCUAAGGGUA [A13C U132C] the self-cleavage was 1.06.
In the case of GUUAACGGUCAUAGGCCAUGGAAACUAGGAGCACCAUUUCGCUGCCAGUGAAGAAAUGAACAAAGAAAAUCUGGGCCAGGAAGGCAUCAAAAGAAAUAGUCUUGCGCUCAACCAGAAAGUCCGUAAUCAUUUUAAGGGUA [C81A U122C], the self-cleavage is reported as 0.22.
Work on GUUAACGGUCAUAGGCCAUGGAAACUAGGAGCACCAUUUCGCUGCCAGUGAAGAAAUGGACAAAGAAAAUCUGGGCCAGGCAGGCAUCAAAAGAAAUAGUCUUGCGCUCAACCAGAGAGUCUGUAAUCAUUUUAAGGGUA [A59G A117G] yielded a self-cleavage of 1.71.
GUUAACGGACAUAGGCCAUGGAAACUAGGAGCACCAUUUCGCUGCCAGUGAAGAAAUGAACAAAGAAAAUCUGGGCCGGGCAGGCAUCAAAAGAAAUAGUCUUGCGCUCAACCAGAAAGUCUGUAAUCAUUUUAAGGGUA [U9A A78G] gave a self-cleavage of 0.32.
GUUAACGGUCAUGGGCCAUGGAAACUAGGAGCACCAUUUCGCUGCCAGUGAAGAAAUGAACAAAGAAAAUCUGGGCCAGGCAGGCAUCAACAGAAAUAGUCUUGCGCUCAACCAGAAAGUCUGUAAUCAUUUUAAGGGUA [A13G A91C] gave a self-cleavage of 1.81.
GUUAACGGUCAUAGGCCAUGGAAACUAGGAGCACUAUUUCGCUGCCAGUGAAGAAAUGAACAAAGAAAAUCUGGGCCAGGCAGGCAUCAAAAGAAAUAGUCUUGCGCUCAACCAGAAAGUCUGUAAUCAUAUUAAGGGUA [C35U U131A] gave a self-cleavage of 1.01.
GUUAACGGUCAUAGGCCAUGGAAACUAGGAGCACCAUUUCGCUGCCAGUGAAGAAAUGAACAAAGAAAAUCUGGGCCAGGCAGGCAUCAAAAGAAUUAGUCUUGCGCUCAACCAGAAAGUCUGUAAUCGUUUUAAGGGUA [A96U A129G] gave a self-cleavage of 1.36.
Work on GUUAACGGUCAUAGGCCAUGGUAACUAGGAGCACCAUUUCGCUGCCAGUGAAGAAAUGAACAAAGAAAAUCUGGGACAGGCAGGCAUCAAAAGAAAUAGUCUUGCGCUCAACCAGAAAGUCUGUAAUCAUUUUAAGGGUA [A22U C76A] yielded a self-cleavage of 0.16.
GUUAACGGUCAUAGGCCAUGGAAACUAGGAGCACCAUUUCGCUGCCAGUGAAGAAAUGGACAAAGAAAAUCUGGGCCAGGCAGGCAUCAAAAGAAAUAGUCUUGCGCUCAACCAGAAAGUCUGUAAUCAUUGUAAGGGUA [A59G U132G] gave a self-cleavage of 1.41.
With GUUAACGGUCAUAGGCCAUGGAAACUAGGUGCACCAUUUCGCUGCCAGUGAAGAAAUGAACGAAGAAAAUCUGGGCCAGGCAGGCAUCAAAAGAAAUAGUCUUGCGCUCAACCAGAAAGUCUGUAAUCAUUUUAAGGGUA [A30U A62G] the self-cleavage was 1.16.
For GUUAACGGUCAUAGGCCAUGGAAACUAGGAGCACCAUUUCGCUGCCAGUGAAGAAAUGAACAAAGAAAAUCUGGGCCAGGCAGGCAUCAAAAGAAAUAGUCUUGCGUUCAACCAGAAAGUCUGUAAUCAUUUUAGGGGUA [C107U A135G], the self-cleavage was 0.01.
Variant GUUAACGGUCAUAGGCCAUGGAAACUAGGAGCACCAUUUCGCUGCCAGUGAAGAAAUGAACAAAGAAAAUCUGGGCCAGGCAGGCAUCAAAAGAAAUAGUCUUGCGCUCAACCAGAAAGUCUGUAUUCACUUUAAGGGUA [A126U U130C] has a self-cleavage of 1.08.
Work on GUUAACGGUCAUAGGCCAUGGAAACUAGGAGCACCAUUUCGCUGCCAGUGAGGAAAUGAACAAAGAAAAUCUGGGCCAGGCAGGCAUCAUAAGAAAUAGUCUUGCGCUCAACCAGAAAGUCUGUAAUCAUUUUAAGGGUA [A52G A90U] yielded a self-cleavage of 1.81.
Work on GUUAACGGUCAUAGGCCAUGGAAACUAGGAGCACCAUUUCGCUGCCAGUGAAGAAAUGAACAGAGAAAAUCUGGGCCAGGCAGGUAUCAAAAGAAAUAGUCUUGCGCUCAACCAGAAAGUCUGUAAUCAUUUUAAGGGUA [A63G C85U] yielded a self-cleavage of 1.21.
With GUUAACGGUCAUAGGCCAUGGAAACUAGGAGCACCAUUUCGCUGCCAGUGAAGAAAUGAACAAAGAAAAUCUGGGCCAGGCAGGCAUCAAAAGAAAUAGUCUUGCGCUCAACUAGAAAGUCCGUAAUCAUUUUAAGGGUA [C113U U122C] the self-cleavage was 0.08.
With GUUAACGGUCAUAGGCCAUGGAAACUAGGAGCACCAUUUCGCUGCCAGUGAAGAAAUGAGCAAAGAAAAUCUGGGCCAGGCAGGCAUCACAAGAAAUAGUCUUGCGCUCAACCAGAAAGUCUGUAAUCAUUUUAAGGGUA [A60G A90C] the self-cleavage was 0.79.
For GUUAACGGUCAUAGGCCAUGGAAACUAGGAGCACCAUUUCGCUGCCAGCGAAGUAAUGAACAAAGAAAAUCUGGGCCAGGCAGGCAUCAAAAGAAAUAGUCUUGCGCUCAACCAGAAAGUCUGUAAUCAUUUUAAGGGUA [U49C A54U], the self-cleavage was 0.94.
Work on GUUAACGGCCAUAGGCCAUGGAAACUAGGAACACCAUUUCGCUGCCAGUGAAGAAAUGAACAAAGAAAAUCUGGGCCAGGCAGGCAUCAAAAGAAAUAGUCUUGCGCUCAACCAGAAAGUCUGUAAUCAUUUUAAGGGUA [U9C G31A] yielded a self-cleavage of 1.12.
With GUUAACGGUCAUAGGCCAUGGAAACUAGGAGCACCAUUUCGCUGCCAGUGAAGAAAUGAACAAAGAAAAUCUGGGCCAGGCAGGCACCAAGAGAAAUAGUCUUGCGCUCAACCAGAAAGUCUGUAAUCAUUUUAAGGGUA [U87C A91G] the self-cleavage was 1.06.
Work on GUUAGCGGUCAUAGGCCAUGGGAACUAGGAGCACCAUUUCGCUGCCAGUGAAGAAAUGAACAAAGAAAAUCUGGGCCAGGCAGGCAUCAAAAGAAAUAGUCUUGCGCUCAACCAGAAAGUCUGUAAUCAUUUUAAGGGUA [A5G A22G] yielded a self-cleavage of 0.81.
Work on GUUAACGGUCAUAGGCCAUGGAAACUAGGAGCACCAUUUCGCUGCCAGUGAAGAAAUGAACAAAGAAAAUCUGGGCCAGGCAGGCAUCAAAUGAAAUAGUCUUGCGCUCAACCAGAAAGUCUGUAAUCAUUUUAAGGGCA [A92U U139C] yielded a self-cleavage of 1.43.
GUUAACGGUCGUAGGCCAUGGAAACUAGGAGCACCAUUUCGCUGCCAGUGAAGAAAUGAAAAAAGAAAAUCUGGGCCAGGCAGGCAUCAAAAGAAAUAGUCUUGCGCUCAACCAGAAAGUCUGUAAUCAUUUUAAGGGUA [A11G C61A] showed a self-cleavage of 0.69.
GUUAACGGUCAUAAGCCGUGGAAACUAGGAGCACCAUUUCGCUGCCAGUGAAGAAAUGAACAAAGAAAAUCUGGGCCAGGCAGGCAUCAAAAGAAAUAGUCUUGCGCUCAACCAGAAAGUCUGUAAUCAUUUUAAGGGUA [G14A A18G] showed a self-cleavage of 1.29.
For GUUAACGGUCAUAGGCCAUGGAAACUAGGAGCACCAUUUCGCUGCCAGUGAAGAAAUGAACAAAGAAUAUCUGGGCCAGGCAGGCAGCAAAAGAAAUAGUCUUGCGCUCAACCAGAAAGUCUGUAAUCAUUUUAAGGGUA [A68U U87G], the self-cleavage was 0.38.
With GUUAACGGUCAUGGGCCAUGGAAACUAGGAGCACCAUUUCGCUGCCAGUGAAGAAGUGAACAAAGAAAAUCUGGGCCAGGCAGGCAUCAAAAGAAAUAGUCUUGCGCUCAACCAGAAAGUCUGUAAUCAUUUUAAGGGUA [A13G A56G] the self-cleavage was 1.04.
With GUUAACGGUCAUAGGCCAUGGAAACUAGGAGCGCCAUUUCGCUGCCAGUGAAGAAAUGAACAAAGAAAAUCUGGGCCAGGCAGGCAUCAAAAGAAAUAGUCUUGCGCUCAACCAGAAAGUCUGUAAUCAUUUUAAGGGUG [A33G A140G] the self-cleavage was 1.26.
With GUUAACGGUCAUAGGCCAUGGAAACUAGGAGCACCAUUUCGCUGCCAGUGAAGAAAUGAACAAAGAGAAUCUGGGCCAGGCAGGCAUCAAAAGAAAUAGUCUAGCGCUCAACCAGAAAGUCUGUAAUCAUUUUAAGGGUA [A67G U103A] the self-cleavage was 0.89.

From the RNAGym collection of RNA variant scans (doi:10.7554/elife.90254)
